This data set has as its target T1, RarA (MgsA) (Escherichia coli, UniProt P0AAZ4 1-447).
T1 sequence: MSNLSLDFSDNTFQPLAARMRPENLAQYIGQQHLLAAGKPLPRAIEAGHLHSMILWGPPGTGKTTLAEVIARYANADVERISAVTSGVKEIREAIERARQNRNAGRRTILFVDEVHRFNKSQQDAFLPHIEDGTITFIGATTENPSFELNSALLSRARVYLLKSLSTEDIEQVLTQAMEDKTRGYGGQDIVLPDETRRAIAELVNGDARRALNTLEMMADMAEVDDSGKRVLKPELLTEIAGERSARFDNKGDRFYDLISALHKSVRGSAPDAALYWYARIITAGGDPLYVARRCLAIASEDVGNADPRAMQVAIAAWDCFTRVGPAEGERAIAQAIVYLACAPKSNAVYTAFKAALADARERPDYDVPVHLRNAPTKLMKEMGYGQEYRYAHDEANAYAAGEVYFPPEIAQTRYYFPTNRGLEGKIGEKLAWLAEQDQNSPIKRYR
Description: fluorescence polarization.

B1: oANP031_F 16 nt ssDNA (ssDNA)
DNA: ACACAGAAGGAGACGG
The Kd is the concentration at which binding is half-saturated. Higher therefore signals a looser complex. Regarding B1, the Kd was 890 ± 28 nM.
